According to US20120172293A1 (Takeda / Millennium, published 2012):

Assays:
[1] = target: human Y2 receptor (human) (UniProt P49146); assay: cell-based or functional assay
[2] = target: human Y2 receptor (human) (UniProt P49146); assay: RBA: displacement of [125I]-PYY from hY2R/CHO membranes

Chain of human Y2 receptor (human) (P49146 whole entry): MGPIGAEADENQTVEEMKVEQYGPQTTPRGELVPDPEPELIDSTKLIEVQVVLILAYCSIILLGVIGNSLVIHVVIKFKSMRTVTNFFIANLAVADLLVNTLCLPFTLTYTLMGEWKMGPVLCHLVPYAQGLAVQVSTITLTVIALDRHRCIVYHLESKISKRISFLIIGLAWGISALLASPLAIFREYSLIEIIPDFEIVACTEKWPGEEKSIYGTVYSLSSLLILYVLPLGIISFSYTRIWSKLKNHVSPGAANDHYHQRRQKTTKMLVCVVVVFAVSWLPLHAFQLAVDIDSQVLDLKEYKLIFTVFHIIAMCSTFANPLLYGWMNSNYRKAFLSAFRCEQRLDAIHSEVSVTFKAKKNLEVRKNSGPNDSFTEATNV

Row | GBA EC50 Ratio ([35S]GTPγS binding) (EC50 compound/EC50 PYY(3-36)) [1] | IC50 Ratio (IC50 compound/IC50 PYY(3-36)) [2] | Substance
1 | 1.5 | 1.2 | Ac-[D-Pro24, Ala(4Pip)26, Cha27,36, Aib28,31, Lys30]-PYY(23-36) (peptide)
2 | 0.94 | 0.78 | [(1S)-1-Carboxyethyl]carbamoyl-[D-Pro24, Pya(4)26, Cha27,36, Aib28,31, Lys30]-PYY(23-36) (peptide)
3 | 1.4 | 0.75 | 4-Imidazolecarbonyl-[D-Hyp24, Iva25, Pya(4)26, Cha27,36, Leu(Me)28, Lys30, Aib31]-PYY(23-36) (peptide)
4 | 1.2 | 0.95 | [(1S)-1-Carboxy-2-(4-hydroxyphenyl)ethyl]carbamoyl-[D-Pro24, Pya(4)26, Cha27,36, Aib28,31, Lys30]-PYY(23-36) (peptide)
5 | 1 | 0.65 | 4-Imidazolecarbonyl-[D-Hyp24, Iva25, Pya(4)26, Cha27,36, αMePhe28, Lys30, Aib31]-PYY(23-36) (peptide)
6 | 1.6 | 0.7 | Ac-[D-Pro24, Pya(4)26, Cha27,36, D-Iva28,31, Lys30]-PYY(23-36) (peptide)
7 | 0.83 | 1.5 | Ac-[D-Pro24, Pya(4)26, Cha27,36, Aib28,31, Orn30]-PYY(23-36) (peptide)
8 | 1.1 | 3.4 | Ac-[D-Pro24, Pya(4)26, Cha27,36, D-Iva28, Lys30, Iva31]-PYY(23-36) (peptide)
9 | 0.86 | 1.1 | Ac-[D-Hyp24, Pya(4)26, Cha27,36, Aib28,31, Lys30]-PYY(23-36) (peptide)
10 | 1.2 | 1.1 | Ac-[D-Pro24, Pya(4)26, Cha27,36, Aib28,31, Arg(Me)30]-PYY(23-36) (peptide)
11 | 0.78 | 0.54 | 2-Methylbutanoyl-[D-Pro24, Pya(4)26, Cha27,36, Aib28,31, Lys30]-PYY(23-36) (peptide)
12 | 1.3 | 1.1 | Ac-[D-Pro24, Arg(Me)25, Pya(4)26, Cha27,36, Aib28,31, Lys30]-PYY(23-36) (peptide)
13 | 4 | 7.2 | Ac-[D-Pro24, Pya(4)26, Nal(2)27, Aib28,31, Lys30, Cha36]-PYY(23-36) (peptide)
14 | 1.7 | 0.57 | (3-Carboxypropyl)carbamoyl-[D-Hyp24, Iva25, Pya(4)26, Cha27,36, Leu(Me)28, Lys30, Aib31]-PYY(23-36) (peptide)
15 | 0.59 | 0.52 | Ac-[D-Pro24, Pya(4)26, Cha27, Aib28,31, Lys30, Phe(2,6-Me2)36]-PYY(23-36) (peptide)
16 | 3.9 | 3.8 | Ac-[D-Pro24, Pya(4)26, Ala(4Pip)27, Aib28,31, Lys30, Cha36]-PYY(23-36) later peak (peptide)
17 | 1.1 | 0.76 | 4-Imidazolecarbonyl-[D-Pro24, Pya(4)26, Cha27,36, Aib28,31, Lys30]-PYY(23-36) (peptide)
18 | 1.3 | 0.52 | [(1S)-1-carboxy-2-hydroxyethyl]carbamoyl-[D-Pro24, Pya(4)26, Cha27,36, Aib28,31, Lys30]-PYY(23-36) (peptide)

The remaining lines, values behind:

Row | Substance | GBA EC50 Ratio ([35S]GTPγS binding) (EC50 compound/EC50 PYY(3-36)) [1] | IC50 Ratio (IC50 compound/IC50 PYY(3-36)) [2]
19 | Ac-[D-Pro24, Pya(4)26, Cha27,36, Aib28,31, Hse30]-PYY(23-36) (peptide) | 5.7 | 5.8
20 | Isobutanoyl-[D-Pro24, Pya(4)26, Cha27,36, Aib28,31, Lys30]-PYY(23-36) (peptide) | 0.89 | 0.79
21 | Ac-[D-Pro24, Pya(4)26, Cha27,36, D-Iva28, Lys30, Aib31]-PYY(23-36) (peptide) | 2.6 | 1.7
22 | Ac-[D-Pro24, Tyr(Me)26, Cha27,36, Aib28,31, Lys30]-PYY(23-36) (peptide) | 1.4 | 0.88
23 | (2-amino-2-oxoethyl)carbamoyl-[D-Pro24, Pya(4)26, Cha27,36, Aib28,31, Lys30]-PYY(23-36) (peptide) | 0.74 | 1.2
24 | 4-Pyridinecarbonyl-[D-Hyp24, Iva25,28, Pya(4)26, Cha27,36, Lys30, Aib31]-PYY(23-36) (peptide) | 1.6 | 1.3
25 | (cis-2,6-Dimethylmorpholin-4-yl)carbonyl-[D-Pro24, Pya(4)26, Cha27,36, Aib28,31, Lys30]-PYY(23-36) (peptide) | 0.65 | 0.91
26 | Ac-[D-Pro24, Abu26, Cha27,36, Aib28,31, Lys30]-PYY(23-36) (peptide) | 0.98 | 2.3
27 | Morpholinocarbonyl-[D-Pro24, Pya(4)26, Cha27,36, Aib28,31, Lys30]-PYY(23-36) (peptide) | 0.57 | 0.89
28 | Ac-[D-Pro24, Pya(4)26, Cha27,36, Aib28,31, Nle30]-PYY(23-36) (peptide) | 1.4 | 0.96
29 | Ac-[D-Pro24, Pya(4)26, Cha27,36, Aib28,31, Lys(Me2)30]-PYY(23-36) (peptide) | 1.7 | 1.1
30 | Ac-[D-Pro24, Pya(4)26, Cha27, Aib28,31, Lys30, Phe(2Me)36]-PYY(23-36) (peptide) | 0.98 | 1
31 | (3-carboxypropyl)carbamoyl-[D-Pro24, Pya(4)26, Cha27,36, Aib28,31, Lys30]-PYY(23-36) (peptide) | 0.97 | 1.2
32 | 4-Imidazolecarbonyl-[Aib24,28,31, Iva25, Pya(4)26, Cha27,36, Lys30]-PYY(23-36) (peptide) | 1.7 | 1.9
33 | (Tetrahydro-2H-pyran-4-ylmethyl)carbamoyl-[D-Pro24, Pya(4)26, Cha27,36, Aib28,31, Lys30]-PYY(23-36) (peptide) | 0.7 | 0.82
